Source: the supplement of paper PMC7125110
± gives the standard error. Fewer inactive variants are shown than the library holds.

B1: glmS ribozyme (parent)
chain: AUAAAAGCGCCAGAACUACAGAAAUGUAGUUGACGAGGAGGAGGUUUAUCGAAUUUUCGGCGGAUGCCUCCAAA

Columns and labels:
Conditions in all cases: with glucosamine-6-phosphate
glucosamine-6-phosphate [1] = variants of: B1; assay: self-cleavage kobs at 160 uM GlcN6P; higher = faster cleavage; RNA array
Procedure, shortened: (§1)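 Tracking of barcoded ribozyme variants used a hybridised Cy3 probe at 37 °C, after in situ transcription by E. coli RNA polymerase on sequenced MiSeq chips. The flowed solution held 40 μM to 10 mM glucosamine-6-phosphate in HEPES/KCl/Mg(OAc)2 buffer, and imaging ran over ~14 h. kobs was taken from exponential decay fits of normalised per-tile medians, and kcat and KM from weighted Michaelis–Menten fits.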

glucosamine-6-phosphate [2] = variants of: B1; assay: self-cleavage kobs at 640 uM GlcN6P; higher = faster cleavage; RNA array
Procedure, shortened: as §1

glucosamine-6-phosphate [3] = variants of: B1; assay: self-cleavage kobs at 2500 uM GlcN6P; higher = faster cleavage; RNA array
Procedure, shortened: as §1

glucosamine-6-phosphate [4] = variants of: B1; assay: self-cleavage kobs at 10000 uM GlcN6P; higher = faster cleavage; RNA array
Procedure, shortened: as §1

Row | Variant | self-cleavage kobs at 160 uM GlcN6P (glucosamine-6-phosphate [1]) [s⁻¹] | self-cleavage kobs at 640 uM GlcN6P (glucosamine-6-phosphate [2]) [s⁻¹] | self-cleavage kobs at 2500 uM GlcN6P (glucosamine-6-phosphate [3]) [s⁻¹] | self-cleavage kobs at 10000 uM GlcN6P (glucosamine-6-phosphate [4]) [s⁻¹]
1 | A39C G51A G63C | < 1e-05 | < 1e-05 |  | 
2 | G35C A36U | < 1e-05 | < 1e-05 | < 1e-05 | < 1e-05
3 | G35C A36C | < 1e-05 | < 1e-05 |  | < 1e-05
4 | G41A A48U A64U C71A | < 1e-05 |  | < 1e-05 | 
5 | A39C A53U G59U C67U | < 1e-05 |  |  | 
6 | A39C A48G | < 1e-05 |  |  | 3.36e-05 ± 1.2e-05
7 | G44U G59A G60A | < 1e-05 | < 1e-05 | < 1e-05 | 
8 | G35U A53C | < 1e-05 |  | < 1e-05 | < 1e-05
9 | G40A A42U U49C C58G A64G C70G | < 1e-05 | < 1e-05 | < 1e-05 | 
10 | G44C G51U C68G | < 1e-05 |  |  | 
11 | A33U U54G U56G C61G U69C | 9.03e-05 ± 2.7e-05 | 0.00035 ± 0.00013 | 0.000171 ± 6e-05 | 
12 | G41U U65A C68G | < 1e-05 |  | < 1e-05 | 
13 | G40U G60A U65G | < 1e-05 | < 1e-05 | < 1e-05 | 
14 | A33U C68G C71A | < 1e-05 | < 1e-05 |  | 
15 | A39U G51U G62U C71A | < 1e-05 |  | < 1e-05 | 
16 | A36U U57C | < 1e-05 |  |  | < 1e-05
17 | A42U U55A G60A C71G | < 1e-05 | < 1e-05 | < 1e-05 | 
18 | A33C C34G | < 1e-05 |  |  | 
19 | G40C G59U | < 1e-05 | < 1e-05 | < 1e-05 | 
20 | C34U G37A C50A A52G C70G | 0.000507 ± 0.00015 | 0.000453 ± 0.00013 | 0.000268 ± 9.2e-05 | 
21 | G43A A52U | < 1e-05 | < 1e-05 | < 1e-05 | 
22 | G32U G51U A53U G66U C71U | < 1e-05 | < 1e-05 | < 1e-05 | 

Row | Variant | self-cleavage kobs at 160 uM GlcN6P (glucosamine-6-phosphate [1]) [s⁻¹] | self-cleavage kobs at 640 uM GlcN6P (glucosamine-6-phosphate [2]) [s⁻¹] | self-cleavage kobs at 2500 uM GlcN6P (glucosamine-6-phosphate [3]) [s⁻¹] | self-cleavage kobs at 10000 uM GlcN6P (glucosamine-6-phosphate [4]) [s⁻¹]
23 | G35C A64G | < 1e-05 | < 1e-05 | < 1e-05 | 
24 | A36U U47A G66U C70G C71U | 4.68e-05 ± 2.2e-05 |  | 0.00104 ± 0.00043 | 
25 | G38A G41A U45C A52G | < 1e-05 | < 1e-05 |  | 
26 | G43U U69G | < 1e-05 | < 1e-05 |  | < 1e-05
27 | G44U G62A | < 1e-05 | < 1e-05 | < 1e-05 | 
28 | G43A U54C U69G | < 1e-05 | < 1e-05 |  | < 1e-05
29 | G38C U55A | < 1e-05 | < 1e-05 |  | 
30 | U45A A52U U65G | < 1e-05 | < 1e-05 |  | 
31 | G41A C67A | < 1e-05 |  |  | 4.21e-05 ± 8.7e-06
32 | A33G A48C A52G | < 1e-05 | < 1e-05 |  | 
33 | G40C A48U C61U | < 1e-05 | < 1e-05 |  | 
34 | G32U A42U | < 1e-05 | < 1e-05 |  | 
35 | A42C A52C C67G | < 1e-05 |  |  | 
36 | G38U G44C U56C U57G C70U | < 1e-05 |  | < 1e-05 | 
37 | U45A A53U U65A | 0.000624 ± 0.00014 | 0.0024 ± 0.00081 | 0.00652 ± 0.0016 | 
38 | G32U G38U G43U A53U | < 1e-05 | < 1e-05 |  | 
39 | A33U G63C | < 1e-05 | < 1e-05 | < 1e-05 | < 1e-05
40 | G35A C50G G59C U65G | 4.37e-05 ± 1.9e-05 | < 1e-05 |  | 
41 | G38C C61U C71U | < 1e-05 |  |  | 
42 | G35U G37C U45C | < 1e-05 |  | < 1e-05 | 
43 | G38A A39U | < 1e-05 | < 1e-05 |  | 
44 | G35C C70U | < 1e-05 | < 1e-05 |  | < 1e-05

Row | Variant | self-cleavage kobs at 160 uM GlcN6P (glucosamine-6-phosphate [1]) [s⁻¹] | self-cleavage kobs at 640 uM GlcN6P (glucosamine-6-phosphate [2]) [s⁻¹] | self-cleavage kobs at 2500 uM GlcN6P (glucosamine-6-phosphate [3]) [s⁻¹] | self-cleavage kobs at 10000 uM GlcN6P (glucosamine-6-phosphate [4]) [s⁻¹]
45 | G43U C61G C71U | < 1e-05 |  |  | 
46 | G37A G44A U46C A48U C71U | < 1e-05 | < 1e-05 | < 1e-05 | 
47 | A33U G37C U46C | < 1e-05 | < 1e-05 | < 1e-05 | 
48 | C34A U55A | < 1e-05 | < 1e-05 | < 1e-05 | 
49 | G37A U46G A53G C61A C70A | < 1e-05 |  |  | 
50 | G41U U46G C61A | < 1e-05 | < 1e-05 | < 1e-05 | 
51 | G35C U65C G66A | < 1e-05 | < 1e-05 | < 1e-05 | 
52 | G40U C67G | < 1e-05 | < 1e-05 |  | 
53 | G38U G62C | < 1e-05 | < 1e-05 |  | 
54 | G32U G59C | < 1e-05 | < 1e-05 | < 1e-05 | 
55 | G35A U55C | < 1e-05 | < 1e-05 | < 1e-05 | < 1e-05
56 | G38U A42U G62U | < 1e-05 | < 1e-05 | < 1e-05 | 
57 | G35A C58U | < 1e-05 |  | < 1e-05 | < 1e-05
58 | A42G G60A C68A | < 1e-05 |  |  | 
59 | G35C U54C G63A | < 1e-05 |  | < 1e-05 | 
60 | G35A G38A A39G G63C C67U | < 1e-05 |  |  | 
61 | C34A A39C U49A U55C | < 1e-05 |  |  | 
62 | G35U U46C | < 1e-05 | < 1e-05 |  | 
63 | A36G A42U U56C | < 1e-05 | < 1e-05 | < 1e-05 | 
64 | G41A G51C G63U C70G | < 1e-05 | < 1e-05 |  | 
65 | G43U G59U G63U C68A | < 1e-05 | < 1e-05 | < 1e-05 | 
66 | A33U C50U C61A C68G C70U | 0.000144 ± 4.4e-05 | 0.000229 ± 6.4e-05 |  | 

Row | Variant | self-cleavage kobs at 160 uM GlcN6P (glucosamine-6-phosphate [1]) [s⁻¹] | self-cleavage kobs at 640 uM GlcN6P (glucosamine-6-phosphate [2]) [s⁻¹] | self-cleavage kobs at 2500 uM GlcN6P (glucosamine-6-phosphate [3]) [s⁻¹] | self-cleavage kobs at 10000 uM GlcN6P (glucosamine-6-phosphate [4]) [s⁻¹]
67 | G41A C68U C70U | 0.000155 ± 3.4e-05 | 0.00049 ± 8.2e-05 | 0.00138 ± 0.00025 | 
68 | G37C G51U | < 1e-05 |  |  | < 1e-05
69 | A36C G41U | < 1e-05 | < 1e-05 | < 1e-05 | < 1e-05
70 | G43U G59U | < 1e-05 | < 1e-05 | < 1e-05 | 
71 | A33G G35A A36C A64G | < 1e-05 |  |  | 
72 | A33G U45G U69A | < 1e-05 | < 1e-05 |  | 
73 | G40U A64U U65G C71G | < 1e-05 | < 1e-05 |  | 
74 | G41C A52C C68U | < 1e-05 |  |  | 
75 | G38C G41U G63C | < 1e-05 |  | < 1e-05 | 
76 | A33C C70A | < 1e-05 | < 1e-05 |  | < 1e-05
77 | G35A G63A | < 1e-05 |  |  | < 1e-05
78 | G35A G43U C50G A64G | < 1e-05 |  |  | 
79 | A33U C58U | < 1e-05 | < 1e-05 |  | 
80 | G37C G43C U47C | < 1e-05 |  | < 1e-05 | 
81 | C34G C50G | 5.61e-05 ± 2.4e-05 | 0.00014 ± 5.7e-05 | 9.6e-05 ± 3.6e-05 | 
82 | G44A G66C | < 1e-05 |  |  | 
83 | C34U G40C U47A C67G | < 1e-05 |  |  | 
84 | G35C G40A A42U | < 1e-05 | < 1e-05 | < 1e-05 | 
85 | G43C U54A G60C | < 1e-05 | < 1e-05 |  | 
86 | A39G G43U C58A | < 1e-05 | < 1e-05 | < 1e-05 | 
87 | G44U U47C | < 1e-05 |  |  | 
88 | G43A C61G C67U C70U | < 1e-05 | < 1e-05 |  | 

Row | Variant | self-cleavage kobs at 160 uM GlcN6P (glucosamine-6-phosphate [1]) [s⁻¹] | self-cleavage kobs at 640 uM GlcN6P (glucosamine-6-phosphate [2]) [s⁻¹] | self-cleavage kobs at 2500 uM GlcN6P (glucosamine-6-phosphate [3]) [s⁻¹] | self-cleavage kobs at 10000 uM GlcN6P (glucosamine-6-phosphate [4]) [s⁻¹]
89 | G44U U49C | < 1e-05 | < 1e-05 |  | < 1e-05
90 | A36U G43A A52U G63A C67A | < 1e-05 |  |  | 
91 | G35A G43U C68U | < 1e-05 |  | < 1e-05 | 
92 | G37A A42C U46C | < 1e-05 |  | < 1e-05 | 
93 | G43A G44A U47A | < 1e-05 |  |  | 
94 | A33G G37U G59C | < 1e-05 |  | < 1e-05 | 
95 | G41U G51C G62A C68U | < 1e-05 | < 1e-05 | < 1e-05 | 
96 | G41C G66U | < 1e-05 | < 1e-05 |  | 
97 | A42U C61A | < 1e-05 | < 1e-05 | < 1e-05 | < 1e-05
98 | A36U U45C | < 1e-05 | < 1e-05 | < 1e-05 | < 1e-05
99 | A39C C61U C71U | < 1e-05 | < 1e-05 | < 1e-05 | 
100 | G43C U55G | < 1e-05 |  |  | 
101 | A33U A36U | < 1e-05 | < 1e-05 | < 1e-05 | < 1e-05
102 | G43A U55G | < 1e-05 |  | 4.42e-05 ± 1.1e-05 | 5.21e-05 ± 7.9e-06
103 | A36U G44A U55A | < 1e-05 |  | < 1e-05 | 
104 | G44U G63U | < 1e-05 | < 1e-05 | < 1e-05 | < 1e-05
105 | G38U G40U A53C C61G A64G C68A | < 1e-05 | < 1e-05 |  | 
106 | G37U G44A A52U A53U | < 1e-05 | < 1e-05 | < 1e-05 | 
